The record followed here is publication PMC4027165, “SAXS analysis of the tRNA-modifying enzyme complex MnmE/MnmG reveals a novel interaction mode and GTP-induced oligomerization” (Nucleic Acids Research, 2014).

The target in data set [1] is T1, MnmE (Y169A, D175A and F176A) with additional S153A (Escherichia coli, UniProt P25522 1-454, S153A | Y169A | D175A | F176A).
T1 sequence: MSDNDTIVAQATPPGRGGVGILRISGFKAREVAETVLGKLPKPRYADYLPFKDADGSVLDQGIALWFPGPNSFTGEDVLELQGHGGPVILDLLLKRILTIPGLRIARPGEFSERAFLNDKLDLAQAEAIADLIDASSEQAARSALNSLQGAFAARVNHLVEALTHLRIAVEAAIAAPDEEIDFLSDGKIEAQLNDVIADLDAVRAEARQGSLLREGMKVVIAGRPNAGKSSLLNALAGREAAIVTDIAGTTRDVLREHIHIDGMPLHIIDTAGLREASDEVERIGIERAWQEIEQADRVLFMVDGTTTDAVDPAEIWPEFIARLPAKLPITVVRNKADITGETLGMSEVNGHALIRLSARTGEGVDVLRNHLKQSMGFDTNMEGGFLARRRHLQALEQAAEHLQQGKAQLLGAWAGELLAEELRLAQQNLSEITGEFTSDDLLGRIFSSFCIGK
Briefly: ITC; MnmE mutant in syringe, MnmG in cell.

In data set [2] the target is T2, MnmE (Y169A, D175A and F176A) (Escherichia coli, UniProt P25522 1-454, Y169A | D175A | F176A).
T2 sequence: T1 sequence with A153S
Briefly: ITC; MnmE mutant in syringe, MnmG in cell.

In data set [3] the target is T3, MnmE (T434A and D440A) (Escherichia coli, UniProt P25522 1-454, T434A | D440A).
T3 sequence: T1 sequence with A153S, A169Y, A175D, A176F, T434A, D440A
Nature of the data set: ITC; MnmE mutant in syringe, MnmG in cell.

In data set [4] the target is T1, MnmE (Y169A, D175A and F176A) with …. Nature of the data set: ITC; MnmG in syringe, MnmE mutant in cell.
In data set [5] the target is T2, MnmE (Y169A, D175A and F176A). Nature of the data set: ITC; MnmG in syringe, MnmE mutant in cell.
For data set [6], the target named is T3, MnmE (T434A and D440A). Nature of the data set: ITC; MnmG in syringe, MnmE mutant in cell.
Data set [7] deals with the molecule itself. Briefly: SEC-MALS; E. coli MnmG alone, at all concentrations used (Supplementary Figure S2(D)).
Data set [8] has as its target T4, MnmE from Escherichia coli, wild type (Escherichia coli, UniProt P25522 1-454).
T4 construct: tRNA modification GTPase MnmE (formerly TrmE), Escherichia coli; open reading frame cloned in a pET20 vector; Homodimer of about 50-kDa subunits; Used nucleotide-free, with GDP-AlFx or with GppNHp depending on the experiment; also called TrmE; MnmE wt
T4 sequence (looked up): T1 sequence with A153S, A169Y, A175D, A176F
Briefly: ITC; 278 K; 20 mM Hepes pH 7.5, 150 mM NaCl, 5 mM MgCl2, 2 mM BME, 1 mM FAD; 15 uM in the cell, 300 uM in the syringe; titrated in both directions; one site model; apparent. As to conditions: both partners purified.

Numbering of substitutions follows the chain as printed.

B1: MnmG from Escherichia coli, wild type (enzyme, UniProt P0A6U3 1-629, looked up)
chain: MFYPDPFDVIIIGGGHAGTEAAMAAARMGQQTLLLTHNIDTLGQMSCNPAIGGIGKGHLVKEVDALGGLMAKAIDQAGIQFRILNASKGPAVRATRAQADRVLYRQAVRTALENQPNLMIFQQAVEDLIVENDRVVGAVTQMGLKFRAKAVVLTVGTFLDGKIHIGLDNYSGGRAGDPPSIPLSRRLRELPLRVGRLKTGTPPRIDARTIDFSVLAQQHGDNPMPVFSFMGNASQHPQQVPCYITHTNEKTHDVIRSNLDRSPMYAGVIEGVGPRYCPSIEDKVMRFADRNQHQIFLEPEGLTSNEIYPNGISTSLPFDVQMQIVRSMQGMENAKIVRPGYAIEYDFFDPRDLKPTLESKFIQGLFFAGQINGTTGYEEAAAQGLLAGLNAARLSADKEGWAPARSQAYLGVLVDDLCTLGTKEPYRMFTSRAEYRLMLREDNADLRLTEIGRELGLVDDERWARFNEKLENIERERQRLKSTWVTPSAEAAAEVNAHLTAPLSREASGEDLLRRPEMTYEKLTTLTPFAPALTDEQAAEQVEIQVKYEGYIARQQDEIEKQLRNENTLLPATLDYRQVSGLSNEVIAKLNDHKPASIGQASRISGVTPAAISILLVWLKKQGMLRRSA
notes: tRNA uridine 5-carboxymethylaminomethyl modification enzyme MnmG (formerly GidA), Escherichia coli; open reading frame cloned in a pET14b vector; Homodimer of 70-kDa subunits; also called GidA; MnmG wt
For the molecule B1, the Kd was determined as 12.9 µM in data set [1]; 12 µM in data set [2]; 11.2 µM in data set [3]; 29.9 µM in data set [4]; 11.4 µM in data set [5]; 9.4 µM in data set [6]. The “stoichiometry N” value came out at 2 in data set [7] and 1 in data set [8].
